Experiments:
[1] = target: the molecule itself; test: single-molecule pull-down (SiMPull); solubilized cochlea supernatant of P6 mice applied to slide coated with anti-PCDH15 mAb 8D1; detected with 39G7 Fab-GFP and anti-LHFPL5 mAb-Alexa647 (colocalization) or with 39G7 Fab-GFP or anti-LHFPL5 Fab-GFP (photobleaching steps); TIRF
[2] = target: the molecule itself; test: single-molecule pull-down (SiMPull); purified co-expressed recombinant PCDH15/LHFPL5 complex (100 pM) captured on slide by biotinylated anti-PCDH15 mAb 8D1; detected with 39G7 Fab-GFP and anti-LHFPL5 mAb-Alexa647 (colocalization) or with 39G7 Fab-GFP or anti-LHFPL5 Fab-GFP (photobleaching steps); TIRF; buffer with 0.005% C12M, 0.001% CHS, pH 8.0

B1: native lipoma HMGIC fusion partner-like protein 5 (LHFPL5) from mouse cochlea or utricle (natural protein, UniProt Q4KL25 1-219, looked up)
chain: MVKLLPAQEAAKIYHTNYVRNSRAVGVMWGTLTICFSVLVMALFIQPYWIGDSVSTPQAGYFGLFSYCVGNVLSSELICKGGPLDFSSIPSRAFKTAMFFVALAMFLIIGSIICFSLFFVCNTATVYKICAWMQLAAATGLMIGCLVYPDGWDSSEVRRMCGEQTGKYTLGHCTIRWAFMLAILSIGDALILSFLAFVLGYRQDKLLPDDYKADGNEEV
notes: LHFPL5 (TMHS), mouse, endogenous in inner ear tissue; also called native LHFPL5; TMHS; source: endogenous, cochlea or utricle of P6 mice, solubilized (1% C12M, 0.2% CHS), supernatant
- stoichiometry N [1]: 2

B2: native protocadherin-15 (PCDH15) from mouse cochlea or utricle (natural protein)
chain: not shown
notes: protocadherin-15, mouse, endogenous in inner ear tissue; also called native PCDH15; source: endogenous, cochlea or utricle of P6 mice, solubilized (1% C12M, 0.2% CHS), supernatant
- stoichiometry N [1]: 2

B3: recombinant protocadherin-15 (PCDH15), residues 1-1462 (EC1-EC11 and part of the cytoplasmic region) (domain or fragment)
chain: not shown
notes: signal peptide in the construct; also called recombinant PCDH15; source: HEK293 tsa201 cells co-infected with PCDH15 and LHFPL5 BacMam viruses; purified as a complex with LHFPL5 (Strep-Tactin, TALON, SEC)
- stoichiometry N [2]: 2

B4: recombinant lipoma HMGIC fusion partner-like protein 5 (LHFPL5), residues 2-219 (natural protein, Mus musculus, UniProt Q4KL25 2-219, looked up)
chain: VKLLPAQEAAKIYHTNYVRNSRAVGVMWGTLTICFSVLVMALFIQPYWIGDSVSTPQAGYFGLFSYCVGNVLSSELICKGGPLDFSSIPSRAFKTAMFFVALAMFLIIGSIICFSLFFVCNTATVYKICAWMQLAAATGLMIGCLVYPDGWDSSEVRRMCGEQTGKYTLGHCTIRWAFMLAILSIGDALILSFLAFVLGYRQDKLLPDDYKADGNEEV
notes: the results call the construct the full-length protein; also called TMHS; recombinant LHFPL5; source: HEK293 tsa201 cells co-infected with PCDH15 (or PCDH15_(1EC)) and LHFPL5 BacMam viruses; purified as a complex (Strep-Tactin, TALON, SEC)
- stoichiometry N [2]: 2
